The results in this text go back to US11732029B2, “Methods and compositions for the treatment of wounds” (The University of Chicago, priority 2017, dated 2023).

Assay [1] concerns the target T1, VEGF-A165 (Homo sapiens, UniProt P15692).
T1 construct: All growth factors (GFs) and chemokines were purchased in their mature forms; purchased PeproTech; host or cells: Escherichia coli
T1 sequence (P15692 27-191 isoform P15692-4 limits assumed): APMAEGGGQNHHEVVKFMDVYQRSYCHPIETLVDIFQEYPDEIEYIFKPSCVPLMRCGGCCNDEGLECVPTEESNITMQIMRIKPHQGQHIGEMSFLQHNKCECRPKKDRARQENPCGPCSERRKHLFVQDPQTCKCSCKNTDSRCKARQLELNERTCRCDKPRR
Description: vWF binding to recombinant VEGF-A isoforms (ELISA). The note with it: plate coated with 50 nM vWF domains, 1 μg/mL VEGF-A, vs BSA. The procedure: (§1) ELISA was performed as previously reported1. In brief, ELISA plates (med binding: Greiner Bio-One) were coated with 50 nM BSA (GE Healthcare), pro-peptide containing recombinant vWF (Sino Biological), plasma-derived vWF (EMD Millipore), recombinant human vWF A1 domain (U-Protein Express), recombinant human vWF A2 domain (R & D systems), recombinant human vWF A3 domain (U-Protein Express), vWF A1 HBD peptide or scrambled/mutated HBD peptide (all peptides were synthesized by Genscript). After blocking with 2% BSA solution containing PBS-T, 1 μg/mL of recombinant human VEGF-A121 (PeproTech), recombinant human VEGF-A145 (R & D Systems), or recombinant human VEGF-A165 (PeproTech) was added. Bound VEGF-A was detected with 1 μg/mL of mouse anti-human VEGF-A antibody (clone: 26503, R & D systems). After 60 min of incubation, horseradish peroxidase (HRP) conjugated goat anti-mouse antibody (1:2000 dilution, Dako) was added and incubated for another 60 min. Color development and the absorbance measurement were done as described above.
On the technique in general: An ELISA detects its analyte on a solid surface through an enzyme-linked reagent.

A further assay concerns the target T2, VEGF-A145 (Homo sapiens, UniProt P15692).
T2 construct: All GFs and chemokines were purchased in their mature forms; purchased R & D Systems
T2 sequence (P15692 27-171 isoform P15692-6 limits assumed): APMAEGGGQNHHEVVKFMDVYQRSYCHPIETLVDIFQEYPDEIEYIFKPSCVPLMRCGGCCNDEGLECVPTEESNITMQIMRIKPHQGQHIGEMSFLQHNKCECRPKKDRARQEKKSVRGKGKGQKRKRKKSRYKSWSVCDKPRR
The assay can be described thus: vWF binding to recombinant VEGF-A isoforms (ELISA). To be noted: plate coated with 50 nM vWF domains, 1 μg/mL VEGF-A, vs BSA. The procedure:
as §1

The target of another assay is T3, PDGF-BB (Homo sapiens, UniProt P01127).
T3 construct: All growth factors (GFs) and chemokines were purchased in their mature forms; purchased PeproTech; host or cells: Escherichia coli
Description: vWF binding to recombinant GFs (ELISA). The note with it: VEGF-A121 signal as baseline. The procedure:
(§2) ELISA tests were performed as previously reported1. In brief, ELISA plates (med-binding, Greiner Bio-One) were coated with 50 nM GFs at 37° C. for 2 hrs. After blocking with 2% BSA solution containing PBS-T, 1 μg/mL of plasma-derived vWF (EMD Millipore) was added. Bound vWF was detected with 1 μg/mL of rabbit anti-human vWF antibody (Sino Biological). Then, HRP conjugated goat anti-rabbit antibody (Jackson ImmunoResearch) was added. After 60 min of incubation, 50 μL TMB substrate (Sigma-Aldrich) was added. The reaction was stopped by adding 25 μL of 2N H2SO4. Subsequently, the absorbance at 450 nm was measured and subtracted the absorbance at 570 nm.

In a further assay the target is T4, CXCL-12α (Homo sapiens, UniProt P48061).
T4 construct: All GFs and chemokines were purchased in their mature forms; purchased PeproTech; host or cells: Escherichia coli
Description: vWF binding to recombinant GFs (ELISA). The note with it: VEGF-A121 signal as baseline. Here is the method: as §2

For the next assay, the target named is T5, PDGF-CC (Homo sapiens, UniProt Q9NRA1).
T5 construct: All GFs and chemokines were purchased in their mature forms; purchased PeproTech; host or cells: Escherichia coli
Description: vWF binding to recombinant GFs (ELISA). To be noted: VEGF-A121 signal as baseline. The procedure:
as §2

In the next assay the target is T6, CXCL-11 (Homo sapiens, UniProt O14625).
T6 construct: All growth factors (GFs) and chemokines were purchased in their mature forms; purchased PeproTech; host or cells: Escherichia coli
T6 sequence (O14625 22-94): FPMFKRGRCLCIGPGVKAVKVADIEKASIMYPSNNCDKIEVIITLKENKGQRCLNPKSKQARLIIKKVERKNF
The assay can be described thus: vWF binding to recombinant GFs (ELISA). The note with it: VEGF-A121 signal as baseline. Here is the method: as §2

A further assay has as its target T7, FGF-7 (Homo sapiens, UniProt P21781).
T7 construct: All GFs and chemokines were purchased in their mature forms; purchased PeproTech; host or cells: Escherichia coli
T7 sequence (P21781 32-194): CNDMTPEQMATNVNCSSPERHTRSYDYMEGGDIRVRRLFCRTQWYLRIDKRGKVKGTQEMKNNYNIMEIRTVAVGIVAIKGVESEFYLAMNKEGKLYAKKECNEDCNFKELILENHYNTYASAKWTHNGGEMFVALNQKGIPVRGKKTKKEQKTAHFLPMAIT
Description: vWF binding to recombinant GFs (ELISA). The note with it: VEGF-A121 signal as baseline. The procedure:
as §2

The next assay deals with T8, TGF-β3 (Homo sapiens, UniProt P10600).
T8 construct: All GFs and chemokines were purchased in their mature forms; purchased PeproTech; host or cells: eukaryotic cells (not specified)
T8 sequence (P10600 301-412 limits assumed): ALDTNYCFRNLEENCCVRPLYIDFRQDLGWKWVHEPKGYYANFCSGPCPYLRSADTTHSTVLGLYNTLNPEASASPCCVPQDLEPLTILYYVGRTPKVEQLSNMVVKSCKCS
The assay can be described thus: vWF binding to recombinant GFs (ELISA). To be noted: VEGF-A121 signal as baseline. The procedure: as §2

In assay [2] the target is T1, VEGF-A165. The assay can be described thus: vWF binding to recombinant GFs (ELISA). The note with it: VEGF-A121 signal as baseline. Here is the method: as §2
For another assay, the target named is T9, PDGF-AA (Homo sapiens, UniProt P04085).
T9 construct: All GFs and chemokines were purchased in their mature forms; purchased PeproTech; host or cells: Escherichia coli
The assay can be described thus: vWF binding to recombinant GFs (ELISA). To be noted: VEGF-A121 signal as baseline. The procedure:
as §2

In a further assay the target is T10, BMP-7 (Homo sapiens, UniProt P18075).
T10 construct: All GFs and chemokines were purchased in their mature forms; purchased PeproTech; host or cells: eukaryotic cells (not further specified)
T10 sequence (P18075 293-431): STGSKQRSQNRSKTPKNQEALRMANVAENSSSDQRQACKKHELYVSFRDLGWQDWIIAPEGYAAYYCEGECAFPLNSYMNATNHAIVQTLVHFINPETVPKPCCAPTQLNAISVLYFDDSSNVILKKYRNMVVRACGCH
Description: vWF binding to recombinant GFs (ELISA). To be noted: VEGF-A121 signal as baseline. The procedure:
as §2

For a further assay, the target named is T11, FGF-1 (Homo sapiens, UniProt P05230).
T11 construct: All GFs and chemokines were purchased in their mature forms; purchased PeproTech; host or cells: Escherichia coli
The assay can be described thus: vWF binding to recombinant GFs (ELISA). The note with it: VEGF-A121 signal as baseline. The procedure:
as §2

Another assay concerns the target T12, IGF-I (Homo sapiens, UniProt P05019).
T12 construct: All GFs and chemokines were purchased in their mature forms; purchased PeproTech; host or cells: Escherichia coli
The assay can be described thus: vWF binding to recombinant GFs (ELISA). The note with it: VEGF-A121 signal as baseline. The procedure: as §2

In a further assay the target is T13, TGF-β1 (Homo sapiens, UniProt P01137).
T13 construct: All GFs and chemokines were purchased in their mature forms; purchased PeproTech; host or cells: eukaryotic cells (not specified)
Description: vWF binding to recombinant GFs (ELISA). To be noted: VEGF-A121 signal as baseline. Here is the method:
as §2

The target of another assay is T14, EGF (Homo sapiens, UniProt P01133).
T14 construct: All GFs and chemokines were purchased in their mature forms; purchased PeproTech; host or cells: Escherichia coli
Description: vWF binding to recombinant GFs (ELISA). To be noted: VEGF-A121 signal as baseline. The procedure: as §2

Another assay concerns the target T15, β-NGF (Homo sapiens, UniProt P01138).
T15 construct: All GFs and chemokines were purchased in their mature forms; purchased PeproTech; host or cells: Escherichia coli
The assay can be described thus: vWF binding to recombinant GFs (ELISA). To be noted: VEGF-A121 signal as baseline. The procedure: as §2

The target of the next assay is T16, IGF-II (Homo sapiens, UniProt P01344).
T16 construct: All GFs and chemokines were purchased in their mature forms; purchased PeproTech; host or cells: Escherichia coli
The assay can be described thus: vWF binding to recombinant GFs (ELISA). To be noted: VEGF-A121 signal as baseline. Here is the method:
as §2

For the next assay, the target named is T17, PDGF-DD (Homo sapiens, UniProt Q9GZP0).
T17 construct: All GFs and chemokines were purchased in their mature forms; purchased PeproTech; host or cells: eukaryotic cells (not further specified)
Description: vWF binding to recombinant GFs (ELISA). To be noted: VEGF-A121 signal as baseline. Here is the method: as §2

T13 sequence (P01137 279-390 limits assumed, species assumed): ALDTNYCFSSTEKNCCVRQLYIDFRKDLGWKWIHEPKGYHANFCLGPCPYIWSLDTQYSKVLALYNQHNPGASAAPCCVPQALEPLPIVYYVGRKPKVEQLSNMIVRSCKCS
T3 sequence (P01127 82-190 limits assumed): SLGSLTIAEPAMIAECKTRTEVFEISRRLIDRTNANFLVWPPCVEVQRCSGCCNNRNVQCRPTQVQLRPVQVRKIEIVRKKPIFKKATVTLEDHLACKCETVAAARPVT
T11 sequence (P05230 16-155 limits assumed): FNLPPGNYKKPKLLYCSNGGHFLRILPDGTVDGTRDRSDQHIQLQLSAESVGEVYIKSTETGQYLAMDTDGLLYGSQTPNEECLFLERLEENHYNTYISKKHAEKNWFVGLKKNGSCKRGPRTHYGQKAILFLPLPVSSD
T14 sequence (P01133 971-1023 limits assumed): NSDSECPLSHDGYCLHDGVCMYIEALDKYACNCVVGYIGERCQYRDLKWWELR
T5 sequence (Q9NRA1 235-345 limits assumed): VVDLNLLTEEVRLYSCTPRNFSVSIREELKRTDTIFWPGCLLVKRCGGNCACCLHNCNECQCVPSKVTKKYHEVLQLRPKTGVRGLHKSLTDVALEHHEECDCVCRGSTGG
T15 sequence (P01138 122-241, species assumed): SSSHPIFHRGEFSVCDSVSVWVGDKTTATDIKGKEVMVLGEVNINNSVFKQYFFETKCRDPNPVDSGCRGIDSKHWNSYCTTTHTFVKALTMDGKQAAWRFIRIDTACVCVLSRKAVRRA
T17 sequence (Q9GZP0 250-370 limits assumed): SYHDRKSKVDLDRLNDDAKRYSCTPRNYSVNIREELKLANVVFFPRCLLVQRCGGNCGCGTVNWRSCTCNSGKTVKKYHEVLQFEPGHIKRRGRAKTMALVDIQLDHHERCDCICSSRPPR
T4 sequence (P48061 22-89 limits assumed): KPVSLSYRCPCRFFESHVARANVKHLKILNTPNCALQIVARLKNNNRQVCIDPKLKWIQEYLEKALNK

For the substance YIGLKDRKRPSELRRIASQVKYAC [vWF HBD], the “binding to VEGF-A165” value with VEGF-A165 [1] was “able to bind”. For the same substance, in the assay with VEGF-A145, the “binding to VEGF-A145” value was “able to bind”.

As for “vWF: human plasma-derived von Willebrand factor (EMD Millipore)”, the “binding to VEGF-A165” value with VEGF-A165 [1] is “bind”. For the same substance, in the assay with VEGF-A145, the “binding to VEGF-A145” value is given as “bound”. In addition, the “vWF binding to PDGF-BB” value with PDGF-BB is “bound”. For the same substance, in the assay with CXCL-12α, the “vWF binding to CXCL-12α” value is on record as “did not”. In addition, the “vWF binding to PDGF-CC” value with PDGF-CC is listed as “bound”. Further, in the assay with CXCL-11, the “vWF binding to CXCL-11” value is listed as “bound”. In addition, the “vWF binding to FGF-7” value with FGF-7 was “bound”. Moreover, in the assay with TGF-β3, the “vWF binding to TGF-β3” value is given as “not”. Besides, in the assay with VEGF-A165 [2], the “vWF binding to VEGF-A165” value was “bound”. In the assay with PDGF-AA, the “vWF binding to PDGF-AA” value is “bound”. The “vWF binding to BMP-7” value with BMP-7 is listed as “not”. The “vWF binding to FGF-1” value in the assay with FGF-1 was “not”. The “vWF binding to IGF-I” value in the assay with IGF-I is on record as “Neither insulin-like growth factor-I (IGF-I) nor IGF-II bound”. The “vWF binding to TGF-β1” value with TGF-β1 is on record as “strong binding”. Further, the “vWF binding to EGF” value with EGF is “did not show binding”. Also, in the assay with β-NGF, the “vWF binding to β-NGF” value is reported as “relevant binding”. Moreover, the “vWF binding to IGF-II” value with IGF-II is recorded as “Neither insulin-like growth factor-I (IGF-I) nor IGF-II bound”. In addition, the “vWF binding to PDGF-DD” value in the assay with PDGF-DD was “bound”.
